Assay [1] concerns the target T1, 3HA-PYL8 (Arabidopsis thaliana, UniProt Q9FGM1).
T1 construct: expressed in transfected cells; host or cells: stably transformed Arabidopsis thaliana (Col-0) plants, line oe3HA-PYL8: seedlings or imbibed seeds; seed lines in pyl8-1 background, some crossed with oeDDA1-GFP
T1 sequence (Q9FGM1 1-188): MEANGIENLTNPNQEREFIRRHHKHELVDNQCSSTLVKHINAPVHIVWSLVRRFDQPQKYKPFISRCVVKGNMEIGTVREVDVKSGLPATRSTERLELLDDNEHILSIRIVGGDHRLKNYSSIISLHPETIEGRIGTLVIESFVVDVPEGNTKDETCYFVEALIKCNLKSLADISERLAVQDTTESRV
In words: In vivo protein degradation assay (cycloheximide time course, immunoblot). Particulars: 8-d-old seedlings treated with cycloheximide, 50 μM MG132; oe3HA-PYL8 and oe3HA-PYL8/oeDDA1-GFP. The method, then:
(§1) For protein extraction from seedlings, proteins were extracted in buffer containing 50 mM Tris-HCl pH 7.4, 150 mM NaCl, 10mM MgCl2, 1 mM PMSF, 0.1%NP-40 and 1× complete protease inhibitor (Roche). After centrifugation at 16,000 g at 4° C., the supernatants were collected. This step was repeated twice. For protein extraction from seeds, seeds were frozen in liquid N2 and then homogenized in buffer containing 7 M urea, 2 M thiourea, 4% 3-[(3-cholamidopropyl)dimethylammonio]-1-propanesulfonate (CHAPS; w/v), 18 mM Tris-HCl pH 7.5, 0,2% Triton X100, 1× complete protease inhibitor (Roche). After 10 min incubation at 4° C. with rotation. DTT was added to protein extracts (14 mM final concentration), prior to 20 min incubation at 4° C. Extracts were clarified by centrifugation as afore-mentioned. Protein concentration in final supernatants was determined using a Bio-Rad Protein Assay kit. For in vivo co-immunoprecipitation assays, normalized seedling protein extracts were incubated with 5 μl anti-GFP antibody (Living colors Full length A.V. Polyclonal Antibody, Clontech) for 1 h at 4° C. with rotation. 10 μl of protein A-coupled beads (prewashed twice with 0.1 M Glycine pH 2.7) were added to the samples and incubated for an additional hour at 4° C. with rotation. […]

Assay [2] deals with 3HA-PYL8. Briefly: MG132 treatment of oe3HA-PYL8 seedlings, anti-HA immunoblot. The class given is in vivo, Arabidopsis. Particulars: 9-d-old oe3HA-PYL8 seedlings, 50 μM MG132, 2 h, vs mock. The procedure: To determine whether PYL8 is a substrate of the UPS, we treated Arabidopsis seedlings expressing a 3×HA-tagged PYL8 fusion (oe3HA-PYL8) with proteasome inhibitor MG132. […] Moreover, upon proteasome inhibition several bands of high MW were detected, likely corresponding to ubiquitinated 3HA-PYL8 forms.
as §1, with “kit.” for “kit. For in vivo co-immunoprecipitation assays, normalized seedling protein extracts were incubated with 5 μl anti-GFP antibody (Living colors Full length A.V. Polyclonal Antibody, Clontech) for 1 h at 4° C. with rotation. 10 μl of protein A-coupled beads (prewashed twice with 0.1 M Glycine pH 2.7) were added to the samples and incubated for an additional hour at 4° C. with rotation.”

Assay [3] concerns the target T2, DET1 (Arabidopsis, UniProt P48732 1-543).
T2 construct: Endogenous protein in the TAP; also called DEETIOLATED 1
T2 sequence (looked up): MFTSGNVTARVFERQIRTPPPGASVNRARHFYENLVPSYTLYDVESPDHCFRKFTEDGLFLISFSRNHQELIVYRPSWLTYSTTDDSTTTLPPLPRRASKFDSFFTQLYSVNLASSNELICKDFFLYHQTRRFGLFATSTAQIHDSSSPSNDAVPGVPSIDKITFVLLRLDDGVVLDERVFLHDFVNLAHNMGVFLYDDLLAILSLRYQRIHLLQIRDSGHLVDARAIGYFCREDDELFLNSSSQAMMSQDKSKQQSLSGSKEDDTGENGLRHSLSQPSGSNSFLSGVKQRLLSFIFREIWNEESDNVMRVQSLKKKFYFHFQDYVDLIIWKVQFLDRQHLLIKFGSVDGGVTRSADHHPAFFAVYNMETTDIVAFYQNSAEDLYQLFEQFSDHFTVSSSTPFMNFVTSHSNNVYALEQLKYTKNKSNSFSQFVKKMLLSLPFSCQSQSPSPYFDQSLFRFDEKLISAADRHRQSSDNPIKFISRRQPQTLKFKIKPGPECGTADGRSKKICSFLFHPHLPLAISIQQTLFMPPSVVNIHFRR
In words: yeast two-hybrid (FIG. 4B). The method, then:
(§2) (A) Y187 yeast cells transformed with pGBKT7-DDA1 were used to screen a cDNA library prepared from Arabidopsis seedlings in the pGADT7 vector and transformed into AH109 cells. Positive clones included truncated versions of ABA receptors PYL4 and PYL9. Yeast clones were grown in selective media containing different concentrations of 3AT (ranging 0.5 to 5 […]). Empty pGADT7 vector was used as negative control. (B-C) DDA1 interaction with full length PYL8 (B), PYL4, PYL5, PYL6 or PYL9 (C) was assessed using yeast two hybrid experiments as in (A). Physical association between PYL8 and other components of the CDD complex (DDB1a, DDB1b, DET1 and COP10) was also tested (B).
(§3) The full length DDA1 cDNA was cloned into the pGBKT7 (Gal4 DNA binding domain, BD; Clontech). […] To confirm protein interactions, plasmids were co-transformed into Saccharomyces cerevisiae AH109 cells, following standard heat-shock protocols (Chini et al., 2007). Successfully transformed colonies were identified on yeast synthetic drop-out lacking Leu and Trp; these colonies were resuspended in water and transferred to selective media lacking Ade, His, Leu and Trp. Plates without His were supplemented with different concentrations of 3-amino 1,2,4-triazole (3AT; ranging 0.5-10 mM). Yeast cells were incubated at 30° C. during 6 days. Empty vectors were co-transformed as negative controls. To test the DDA1 interaction with specific DDB1a domains, DDB1a truncated versions were generated and cloned into the pGADT7 vector as follows: BPA (aa 16-350), BPB (aa 387-704), BPA+BPB (aa 16-704), BPC (aa 704-1002) and BPB+BPC (aa 350-1002). Full length DDB1a was used as a positive control.

In assay [4] the target is T3, DDB1a (Arabidopsis, UniProt Q9M0V3 1-1088).
T3 construct: Endogenous protein in the TAP from Arabidopsis cell cultures; also called DDB1 proteins
T3 sequence (looked up): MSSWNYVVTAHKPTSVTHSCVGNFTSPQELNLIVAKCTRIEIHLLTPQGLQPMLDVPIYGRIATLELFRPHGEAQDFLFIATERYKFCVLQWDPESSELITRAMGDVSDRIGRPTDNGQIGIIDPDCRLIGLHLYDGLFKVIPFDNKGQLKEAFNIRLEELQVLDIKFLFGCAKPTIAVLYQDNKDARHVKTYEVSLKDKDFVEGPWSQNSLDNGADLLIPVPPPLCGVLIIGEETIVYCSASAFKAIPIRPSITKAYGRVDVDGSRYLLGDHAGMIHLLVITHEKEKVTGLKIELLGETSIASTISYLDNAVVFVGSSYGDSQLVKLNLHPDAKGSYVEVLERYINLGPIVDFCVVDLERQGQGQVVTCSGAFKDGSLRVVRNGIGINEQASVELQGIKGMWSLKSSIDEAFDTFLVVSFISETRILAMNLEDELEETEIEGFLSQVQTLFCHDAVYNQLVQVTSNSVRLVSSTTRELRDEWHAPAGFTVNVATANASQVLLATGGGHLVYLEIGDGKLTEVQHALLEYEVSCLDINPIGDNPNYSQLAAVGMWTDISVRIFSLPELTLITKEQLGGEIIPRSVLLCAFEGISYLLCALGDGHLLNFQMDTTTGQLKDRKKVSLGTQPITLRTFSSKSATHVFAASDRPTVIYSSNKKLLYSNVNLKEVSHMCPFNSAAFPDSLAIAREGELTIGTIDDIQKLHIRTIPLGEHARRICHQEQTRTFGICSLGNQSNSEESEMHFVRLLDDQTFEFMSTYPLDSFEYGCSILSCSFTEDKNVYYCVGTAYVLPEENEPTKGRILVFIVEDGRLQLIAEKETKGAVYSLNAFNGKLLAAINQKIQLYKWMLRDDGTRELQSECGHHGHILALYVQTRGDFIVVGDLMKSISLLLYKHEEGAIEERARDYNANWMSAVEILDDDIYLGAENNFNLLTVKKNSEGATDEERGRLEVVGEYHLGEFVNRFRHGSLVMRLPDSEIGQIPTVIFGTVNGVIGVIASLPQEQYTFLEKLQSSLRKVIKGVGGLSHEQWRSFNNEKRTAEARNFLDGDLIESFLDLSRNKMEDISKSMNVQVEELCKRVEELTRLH
Briefly: yeast two-hybrid (FIG. 4B). The method, then: as §2, §3

Assay [5] addresses T4, DDB1b (Arabidopsis, UniProt O49552 1-1088).
T4 construct: Endogenous protein in the TAP; also called DDB1 proteins
T4 sequence (looked up): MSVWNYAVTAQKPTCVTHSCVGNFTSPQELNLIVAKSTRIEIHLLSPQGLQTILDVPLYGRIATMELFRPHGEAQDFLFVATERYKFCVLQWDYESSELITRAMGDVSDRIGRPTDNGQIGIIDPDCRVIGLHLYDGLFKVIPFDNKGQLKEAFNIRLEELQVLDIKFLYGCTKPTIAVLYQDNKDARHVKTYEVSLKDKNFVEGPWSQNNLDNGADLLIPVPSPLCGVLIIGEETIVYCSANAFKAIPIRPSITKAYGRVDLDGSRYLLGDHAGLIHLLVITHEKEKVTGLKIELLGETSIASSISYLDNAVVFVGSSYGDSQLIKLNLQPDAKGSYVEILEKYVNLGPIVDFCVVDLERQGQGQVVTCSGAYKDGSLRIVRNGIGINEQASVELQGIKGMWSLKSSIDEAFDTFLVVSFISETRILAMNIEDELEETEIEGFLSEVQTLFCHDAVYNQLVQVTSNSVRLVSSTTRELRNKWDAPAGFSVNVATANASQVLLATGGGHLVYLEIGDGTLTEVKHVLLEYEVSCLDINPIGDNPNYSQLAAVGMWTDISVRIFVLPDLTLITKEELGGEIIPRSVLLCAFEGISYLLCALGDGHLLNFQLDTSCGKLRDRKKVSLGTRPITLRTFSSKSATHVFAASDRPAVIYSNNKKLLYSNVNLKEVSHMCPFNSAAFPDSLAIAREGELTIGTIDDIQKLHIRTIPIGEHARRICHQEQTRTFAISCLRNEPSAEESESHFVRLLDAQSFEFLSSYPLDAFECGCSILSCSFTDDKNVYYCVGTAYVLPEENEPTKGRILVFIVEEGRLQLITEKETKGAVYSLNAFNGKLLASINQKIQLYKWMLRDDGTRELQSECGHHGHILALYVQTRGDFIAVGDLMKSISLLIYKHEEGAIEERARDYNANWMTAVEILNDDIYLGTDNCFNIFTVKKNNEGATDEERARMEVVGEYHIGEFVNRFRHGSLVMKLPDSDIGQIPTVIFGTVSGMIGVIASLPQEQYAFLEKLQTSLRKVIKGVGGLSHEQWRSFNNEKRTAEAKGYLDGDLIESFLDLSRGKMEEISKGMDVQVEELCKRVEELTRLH
In words: yeast two-hybrid (FIG. 4B). The method, then: as §2, §3

Entries after “also recorded” stand apart in the source; their conditions may differ. Peptide text beside a SMILES is read from it. * marks the point of attachment. Cbz = O=C(OCc1ccccc1)*

Regarding `CC(C)C[C@@H](C=O)NC(=O)[C@H](CC(C)C)NC(=O)[C@H](CC(C)C)NC(=O)OCc1ccccc1` [MG132] (Cbz-Leu-Leu-Leu-aldehyde), the 3HA-PYL8 destabilization/accumulation entry in assay [1] is reported as “attenuated 3HA-PYL8 destabilization; also recorded: increased accumulation of 3HA-PYL8”. Besides, the 3HA-PYL8 protein accumulation entry in assay [2] is listed as “increased 3HA-PYL8 protein accumulation; also recorded: stabilizes 3HA-PYL8”.

B1: full length PYL8 (receptor, Arabidopsis, UniProt Q9FGM1 1-188, looked up)
chain: T1 sequence (Q9FGM1 1-188)
notes: Gal4-domain fusion in the yeast two-hybrid assays; also called ABA receptor PYL8
As for B1, the binding result in assay [3], in assay [4] and in assay [5] was “no binding” throughout.

The record behind these values is patent US20160102316A1, “STRESS TOLERANT PLANTS” (CONSEJO SUPERIOR DE INVESTIGACIONES CIENTIFICAS(CSIC), priority 2013, published 2016).
